Our source for the Kd values is patent CN114106166A (VIRUS DISEASE PREVENTION AND CONTROL PLACE OF CHINESE …, dated 2022).

In one assay the target is T1, 新型冠状病毒Omicron变体RBD蛋白 (SARS-CoV-2 Omicron variant, UniProt P0DTC2 319-541).
T1 construct: domain: RBD
The experiment in a line: SPR, BIAcore 8000, RBD protein coupled to the chip, 1:1 binding fit.

Another assay deals with T2, 新型冠状病毒Delta变体RBD蛋白 (SARS-CoV-2 Delta variant, UniProt P0DTC2 319-541).
T2 construct: domain: RBD; also called 新冠Delta变体RBD蛋白
Described as above.

B1: 人源抗新冠病毒中和性抗体D2 (全抗体IgG) (antibody, V domains shown)
VH: EVQLVESGGGLVQPGRSLTLSCGASGFTFEDYAMHWVRQAPGKGLEWVSGIDWNSGVIGYADSVKGRFIISRDNAKNSLYLHMRSLTAEDTALYYCAKDVYSESGSGSYYDYWGQGTLVTVSS
VL: QSVLTQPPSVSAAPGQKVAISCSGSTSNIGDNFVSWYQQFPGTAPKLLLYDDARRPSGIPDRFSGSKSGTSATLGITGLQTGDEAVYFCSTWDNSLNVVLFGGGTKLTVL
notes: also called D2号抗体; 纯化D2抗体
For orientation: Kd means the free concentration of one partner at which half of the binding sites on the other are occupied at equilibrium, for simple one-to-one binding. In the case of B1, the Kd is 0.011 nM with 新型冠状病毒Omicron变体RBD蛋白 and 0.0621 nM with 新型冠状病毒Delta变体RBD蛋白.
